Laboratory results as given in patent publication US6824783.

Target: viral gp41 (HIV-1 transmembrane protein) of HIV-1IIIB (HIV-1 IIIB)
Assay: cell-based or functional assay

Substance | Cell fusion (IC90) | HIV infectivity (IC90)
M41 (maltose binding protein fused to the extracellular domain of HIV-1 gp41, residues 540-686) (from UniProt P03377 540-686) | > 50 µM | > 16 µM
M41-P (M41 with an Ile to Pro mutation at position 578) (from UniProt P03377 540-686) | 0.083 µM | 0.066 µM
M41-PΔ178 (M41-P from which the DP-178 region has been deleted; gp41 residues 540-642 with Ile578Pro) (from UniProt P03377 540-642) | > 50 µM | > 8 µM
